Data set [1] relates to tTALE-eGFP (truncated TALE, 7-mer TGTCTGT repeat domain, fused to eGFP) (artificial construct (from TALEN plasmid RHD_Exon4_TALEN_L)). Kind of data set: FRET. The following applies: FRET: TE pH 8.0, 100 nM dsDNA, 10-100 nM tTALE-eGFP for Kd; NaCl series 0-200 mM at 30 nM protein; excitation 488 nm, emission 631 nm; temperature not stated.
Data set [2] has the same test system. As to the kind of experiment: single-molecule fluorescence (surface-immobilized DNA in flow cell). The following applies: FRET: TE pH 8.0, 100 nM dsDNA, 10-100 nM tTALE-eGFP for Kd; NaCl series 0-200 mM at 30 nM protein; excitation 488 nm, emission 631 nm; temperature not stated.

pKd: −log10 of the molar value.

Here are results for two substances from publication PMC6868158.

In turn, TGTCTGTATG (double strand) [target DNA] showed a negative-log Kd (pKd) in data set [1] of 7.57.

With lambda DNA, the K half in data set [2] worked out at 22 nM.
